According to CN115124615A (SICHUAN YIAI TECH CO LTD, dated 2022):

Biological target: T1, SARS-CoV2病毒表面SPIKE蛋白的RBD结构域 (SARS-CoV-2, UniProt P0DTC2 319-541)
T1 construct: domain: RBD结构域
Test: SPR (Biacore)

| Binder | Kd |
| --- | --- |
| 纳米抗体N1 (VHH, also called R1) VHH: QVQLVESGGGLVQPGGSLRLSCTASGSGFSNNNMAWYRQAPGKAREWVAAVSSSGNTNYAASAKGRFTISRDNAKNTVYLQMSSLKPEDTAVYYCYAVAPEGGDSWGQGTQVTVSS | 0.56 nM |
| 纳米抗体N10 (VHH, also called R10) VHH: QVQLVESGGGLVEAGGSLRLSCAASGIIFSINNMAWYRQAPGKPREWVAAVSSSGNTNYAASVKGRFTISRDNAKNTLYLQMSSLKPEDTAVYYCYAVAPEGGDSWGQGTQVTVSS | 0.59 nM |
| 纳米抗体N3 (VHH, also called R3) VHH: QVQLVESGGGLVQAGGSLRLSCRASGSVFTMGWHRQAPGNGREFVASITRDGNANYKGSVKDRFTISRDNGKNTLYLQMNSLKPEDTAVYYCIDYNTSTWGQGTQVTVSS | 1.4 nM |
| 纳米抗体N22 (VHH, also called R22) VHH: QVQLVESGGGLVQAGGSLRLSCRASGTVFNMGWHRQAPGQQREFVASISHDGRTNYAGSVKGRFTISRDNTKNTLYLQMNSLKPEDTAVYYCIDYHTSLWGQGTQVTVSS | 0.19 nM |
| 纳米抗体N5 (VHH, also called R5) VHH: QVQLVESGGGPVQAGGSLRLSCAAAGSALSIYRMGWYRQAPGKQRELVAFITTGGSTDHIDSVKGRFTISRDNAKNTVYLQMNSLKPEDTAVYYCNSDPPWVLGADWGQGTQVTVSS | 5.3 nM |

Biological target: 新冠病毒刺突蛋白(S蛋白) (SARS-CoV-2, UniProt P0DTC2 14-1213)
Test: cell-based or functional assay

| Binder | 假病毒中和 IC50 |
| --- | --- |
| 纳米抗体N5 (VHH, also called R5) VHH: QVQLVESGGGPVQAGGSLRLSCAAAGSALSIYRMGWYRQAPGKQRELVAFITTGGSTDHIDSVKGRFTISRDNAKNTVYLQMNSLKPEDTAVYYCNSDPPWVLGADWGQGTQVTVSS | 0.023 µg/mL |
